B1: Skp (natural protein, E. coli, UniProt P0AEU7 21-161, looked up)
chain: ADKIAIVNMGSLFQQVAQKTGVSNTLENEFKGRASELQRMETDLQAKMKKLQSMKAGSDRTKLEKDVMAQRQTFAQKAQAFEQDRARRSNEERGKLVTRIQTAVKSVANSQDIDLVVDANAVAYNSSDVKDITADVLKQVK
B2: unfolded OmpA, deuterated (natural protein, E. coli, UniProt P0A910 22-346, looked up)
chain: APKDNTWYTGAKLGWSQYHDTGFINNNGPTHENQLGAGAFGGYQVNPYVGFEMGYDWLGRMPYKGSVENGAYKAQGVQLTAKLGYPITDDLDIYTRLGGMVWRADTKSNVYGKNHDTGVSPVFAGGVEYAITPEIATRLEYQWTNNIGDAHTIGTRPDNGMLSLGVSYRFGQGEAAPVVAPAPAPAPEVQTKHFTLKSDVLFNFNKATLKPEGQAALDQLYSQLSNLDPKDGSVVVLGYTDRIGSDAYNQGLSERRAQSVVDYLISKGIPADKISARGMGESNPVTGNTCDNVKQRAALIDCLAPDRRVEIEVKGIKDVVTQPQA
modifications: partially deuterated (estimated 50 % ± 5 %)
B3: unfolded OmpW, deuterated (natural protein, UniProt P0A915 22-212, looked up)
chain: HEAGEFFMRAGSATVRPTEGAGGTLGSLGGFSVTNNTQLGLTFTYMATDNIGVELLAATPFRHKIGTRATGDIATVHHLPPTLMAQWYFGDASSKFRPYVGAGINYTTFFDNGFNDHGKEAGLSDLSLKDSWGAAGQVGVDYLINRDWLVNMSVWYMDIDTTANYKLGGAQQHDSVRLDPWVFMFSAGYRF
modifications: partially deuterated (estimated 50 % ± 5 %)

Tests used:
[1] = biological target: the molecule itself; test: small-angle neutron scattering
Skp = biological target: B1; test: contrast variation small-angle neutron scattering

With B1 the “stoichiometry N” value [1] was 3.

In the case of B2, the “stoichiometry N” value (Skp) is reported as 3 Skp monomers per uOMP.

In the case of B3, the “stoichiometry N” value (Skp) is reported as 3 Skp monomers per uOMP.

— PMC4913355 (Methods in enzymology, 2015)
